Measured values as given in a protein production outcome set (Wang et al. 2014).

Test: label from the status in PepcDB records

Sequence: MNTTVEKQQIITSNTEQWKMYSKLEGKEYQIHISKPKQPAPDSGYPVIYVLDGNAFFQTFHEAVKIQSVRAEKTGVSPAIIVGVGYPIEGAFSGEERCYDFTPSVISKDAPLKPDGKPWPKTGGAHNFFTFIEEELKPQIEKNFEIDKGKQTLFGHSLGGLFALHILFTNLNAFQNYFISSPSIWWNNKSVLEKEENLIIELNNAKFETGVFLTVGSLEREHMVVGANELSERLLQVNHDKLKFKFYEAEGENHASVVPTSLSKGLRFISYV
- protein production: not failed

Sequence: MRPRPDAALAMSSGPPAARKPGVVQPALLNMSAWLRPEPGLTVVTPLVRALVLISAFSPQERWLGNGQLAQRTGLPPSTVSRIAQSLVHLGYLLHDGAERKYRLAPAVLGLGYAAIAHSAIQGLAGERMAAFARQHKVHVCLAARDRLDLVVLECRRSLECPVALPLHVGMRVGIAQSPMGWSMLAALPELERCYLLDNVERRMARDWSRLRRRVWEGMAQVGETGYCTSIGEWNPELGALATPVLLEGSSPFVLACIGTSQTMTRARVARELGPRLLAMREALQTEFNVIGH
- protein production: failed

Sequence: MLRQGAKHTACTGRRNDDDRTPKEQSMKIVVIGGTGLIGSNVVNRLRRDGHETVAASPGTGVNTITGEGLAQALDGAQVVVDVANSPSFEDQAVMAFFETSGRTLLAAEAAAGVTHHLALSVVGTDRLADSGYFRAKVAQEALIKASKVPYTILRATQFFEFIESIVNAGADGDTVRLSPALIQPIAADDVSAALADLAVGMPLNGTVEVAGPDRLPLDELARKFLAARGDRRQVVADVHARYFGSELDDRSLVAGDNPRVGSTRLMNWLSRSPAPQ
- protein production: failed

Sequence: MEYDEKLARFRQAHLNPFNKQSGPRQHEQGPGEEVPDVTPEEALPELPPGEPEFRCPERVMDLGLSEDHFSRPVGLFLASDVQQLRQAIEECKQVILELPEQSEKQKDAVVRLIHLRLKLQELKDPNEDEPNIRVLLEHRFYKEKSKSVKQTCDKCNTIIWGLIQTWYTCTGGPRPRRGVRNERDQSSCLRWAHIQM
- protein production: failed

Sequence: MGCGLRKLEDPDESSPGKIFSTLKRPQVETKTEFAYEYALLDFTLQASTNPDVIKINSVLDIVAKVEDYYLKGYVVGAIHPVIQPVGQRKHLPASHLYRAVLSRLKLSPKHSAAGGQRRARLVMEECPLTCEAQANDAAKELMDKINAAAKRGMKFVGLVSQCYLPSMHCNGASHDGVAESGLHVRQDSQDNCKGWNEGALGGHLSESGVEEEPQHESGQHQTERNSSPSYANPKRGEAPDGKLYMVFNAFEEDAASWAYQEGVLSMKVTRKGAVISALDANWLELTTFYYKQGFSLIDSFVCWETPKVAKLEAFQLSVSDKLPKGKQKYSFQSLSGIPASGLA
- protein production: not failed

Sequence: MLTVHRDARDYQIIFLCSFLSLGILARDWSLSPLVIAVVLATALTVQSLFTINQQGNFSRWFSLDTWQSLWRHQGWKSALITGLGLCLLLRANHLSTLILAASLAIASKFLLQAWGKHWFNPANFGIIAALTLTGDAWVSPGQWGTTLWLGAVFLAAGGLVLGKVGRWDTSIMFLAVYAGLDLARNAWLGWPPEVSFHHLENGSLLVFALFMLTDPRSIPNARSSRLIWATAIAIFSLILQYHFYLPTALFWALFCLSPLTVLLDRQFPAPRFQWWQKKNPVPSN
- protein production: failed

Sequence: MSTQYWEEEIEIMSREKLQELQLQRLKKTINIAANSPYYKEVFSKNGITGDSIQSLDDIRKIPFTTKSDMRANYPFGLVAGDMKRDGVRIHSSSGTTGNPTVIVHSQHDLDSWANLVARCLYMVGIRKTDVFQNSSGYGMFTGGLGFQYGAERLGCLTVPAAAGNSKRQIKFISDFKTTALHAIPSYAIRLAEVFQEEGIDPRETTLKTLVIGAEPHTDEQRRKIERMLNVKAYNSFGMTEMNGPGVAFECQEQNGMHFWEDCYLVEIIDPETGEPVPEGEIGELVLTTLDREMMPLIRYRTRDLTRILPGKCPCGRTHLRIDRIKGRSDDMFIIKGVNIFPMQVEKILVQFPELGSNYLITLETVNNQDEMIVEVELSDLSTDNYIELEKIRRDIIRQLKDEILVTPKVKLVKKGSLPQSEGKAVRVKDLRDNK
- protein production: not failed

Sequence: MARSIDYGNLMHRAMRGLIQSVLEDVAEHGLPGAHHFFITFDTTHPDVAMADWLRARYPQEMTVVIQHWYENLSADDHGFSVTLNFGNQPEPLVIPFDAVRTFVDPSVEFGLRFETHEEDEEEETGGDEDPDGDDEPPRHDAQVVSLDKFRKLEHHHHHH
- protein production: failed

Sequence: MLSKILYADSGTSQTQEMLKAMMDFPAVQKASITILHVVPPQITTEAFTEKWAEGGKILADLLEDVAIEPSKVSTVLRQGDPKGVVCDVANEIDADLIIMGSRGLKRLEAILENSVSQYVFQLTNHPMLLVKDDIYVKRIKRVMVALDKSAAAEYALELALELLRDYPEGELILARVNPDLKPDLLPLSRQEIEENPVLAPAIAKAKRLGIAYRCTVTGGKPGEKLCELAEDYNADLMLLGSPDRRPSIAKSLPDLDRLLGTSLSDYIRVNAPCPVLLTRKEGI
- protein production: failed

Sequence: MGHHHHHHSHIEETTMTTQTPAPIQAPSAILPLPGQSVERLCVDPRHRQGPVNLLSDPEQGVEVTGQYEREKAGFSWIEVTFKNPLVWVHASPEHVVVTRNRRSSAYKWKETLFSVMPGLKMTMDKTGLLLLSDPDKVTIGLLFWDGRGEGLRLLLRDTDRFSSHVGGTLGQFYQEVLWGSPAASD
- protein production: failed

Sequence: VPLEARMKQFKDMLLERGVSAFSTWEKELHKIVFDPRYLLLNPKERKQVFDQYV
- protein production: failed

Sequence: MRHDDARGRPGTRIAWRATFAAKRGEALRADHLRYRPQAGSPGALHCFVLDCSASMLTAERLARAKGLVVALFDSLARERADAALVCFGGNSAGVRFGPAVPRWWNERWLAPVGAGGGTPLARGIGAATRLLARAARRRPRQQRWLWLLSDGRTTEAPARPAFADRIVIVDFDDAAVRLGRCERLAHAWGAALVTPQALERGGG
- protein production: failed

Sequence: ISKASATRHSQLVTHACRLIETSDPVPSLGQLSARLAVSPFHLHRLFKAETGV
- protein production: failed

Sequence: MNTLECLAVAVALAMDAFAVAIATGIRLREVSPRQTFRLAFHFGLFQALMPVAGWTLGLTVRGYIEQWDHWLAFGLLLYIGVRMMREAFEETEENDDRCDPTRGLTLIMLAVATSIDALAVGLSLSVLGIDIVTPAIVIGVVCLLFTATGLHLGRMLSRAESLGRRAALAGGVVLIGIGLRILYEHGVFDTAATLARSVLG
- protein production: failed

Sequence: KTPIQVLHEYGMKTKNIPVYECERSDVQIHVPTFTFRVTVGDITCTGEGTSKKLAKHRAAEAAINILKANA
- protein production: not failed

Sequence: MQEAPNTPTRPQAPPSAHLESPQPARTQQQSIQQMTPQSTTSSNNFLKDGAAGAVLEDQDIEEVLKALKTFDGGHVNPDTICEFFDEVWEEAAPAAPLPPAPPENVVDVPGAKPSCSGILVSGSNISQPNVIIKQEQRPWQESHAELEQQQHVISRRIEFLLRRMRKLQARAMCRHASEEVVGIMEWSARSSHKAPV
- protein production: failed

Sequence: MKKLNSKGIRLSELMEKWRRRKKGHFAVYTNEGKRFVLPLDYLNHPMLQVLLQMAEDEFGTTIDGPLKVPCDGSLMDHIIMLVRRSMSHDYDDVEKSSTSSTCKGASISSLFRGQSQLQSLVS
- protein production: failed

Sequence: MGHNAINRLQLVATLAEREVMRYTPAGVPIVNCLLSYSGQAMEAQAARQVEFSIEALGAGKMASVLDRIAPGTVLECVGFLARKHRSSKALVFHISGCNVFVKDLEHHHHHH
- protein production: not failed

Sequence: MSETDLLLKMVRQPVKLYSVATLFHEFSEVITKLEHSVQKEPTSLLSEENWHKQFLKFAQALPAHGSASWLNLDDALQAVVGNSRSAFLHQLIAKLKSRHLQVLELNKIGSEPLDLSNLPAPFYVLLPESFAARITLLVQDKALPYVRVSFEYWHA
- protein production: not failed

Sequence: MQAILLNFCFDFMCNYVIMSNKHFYRLGGFIMSFKIITISREFGSGGRFIGEQIAQKCGIEFYDKKIIEHVAKELGISEQIVANQGEYAPAGNIFSYAFVGRDITGVSLSDQIFNIQQKLIKDIAQKEPCVIVGRCADYILSDRDDVLNVFIEGNKPEKAARIKKLYQKSDDEVKKLLKDVDKKRSVNYRYFTDKEWGNRKNYDLVLNSSVLGYDKCIELITAAYA
- protein production: failed

Sequence: MHPPIVMSTLPPSVAPPIGTAPQRHSLVSLRRLSWLRWALLAGQALLLVSCESLAGIALPYKPLLFLFAVQTVFNVFTVARLHWHTRHGTAPSDAELMVQMMVDLTALSAILFYTGGATNPFVSFYLPGLAIASAILPWRLVVTLAAYALACYSMLLLEYIPLDLHNPDNAVNYHLAGMWLNFVASAVMIAFFVARLSNALRQRDAQLNEARELLLREARVEALNDQAAAVAHEIGTPLATLAVIAGELRADAENTNRSDTPVADYQADLRTMEQQLELCRSILARLRADHETLAPQRIDAWLAPFVERWQLRHPQASLQAGAAPDAAAQAVDTARISQILTIALDNAARSQQAAGHDHRQGPPLRLDIAREADALVYRVTDHGHGLPPGLRARLGESPVASAHGGQGIGLYLAQSAARQLGGQISWHDNPAGGTVLELRLPLTAASERAIAAQPDFQP
- protein production: failed

Sequence: MNLDALVSWSRAQFALTAMYHWLFVPLTLGLGVIMAIVETIYYRNGKPEWKRYAQFWQKLFGINFAIGVATGIILEFEFGTNWSNYSLFVGDIFGAPLAIEGILAFFMEATFIAVMFFGWNKVSKGFHLSATWLTIIGASLSAVWILIANAWMQEPVGMTFNPDTMRNEMTDFWALVFSSTAINKFWHTISSCWTLGSVFALGVCGIYLLRKDDKHKDFALKNIKIIAPFGLAASLITAFTGDTSAYNVAQKQPMKLAAMEALYDSGQTDKDGLTADGKGLPLSLFGILNPAKETPQDDKEAFLFNVSVPRVLSVLGTRNPSGYVPGINNILEGGYVKADGTTAIPVDSMMQRGRRAIMALNDYSKAKQAGDMEAALQHKSVIDENFPYFGYSYIQHKNDIVPPVGLTYYSFRIMVGLGMLFILLFLMAWLLSFKPEKFSKMRWFHMIAIVCMPLAWVASQSGWIVAEVGRQPWTIQDLLPVQAAVSKLEAGSVIITFFVFLVLFSALLVAELNIMRKAIKKGPETE
- protein production: failed

Sequence: MMKTLSPLKASLFAILASSTVLVTTVSAEPSQECDHPRSEFHKRGDRMGHDGMHKMFEGLELTDTQKADIKKLFAEQRAARSDDKPTKEERLARRAEMHALITAATFDETQAKALIGAQQEKRQAQAIERMKMQNQIYNLLTPEQQAKFKARFEAHTGKEPRSLEHHHHHH
- protein production: failed

Sequence: MRVQANSRSMGVLEDKARARTFYKYLSKVYDRVNTFIWTEEMRAEALSMLDIDAEDRVLDVGCGTGFGTEGLLKHTEHVYGLDQSPHQLTKAWEKFGKHDPVAFHFGDAERLPFKPDSFDVVWSSGSIEYWPHPVQGLRELRRVAKPGSQVLVVGPDYPASTVFRKLADAIMLFYDEDEADRMFREAGYEEIQHRVLRKEPNSPPAIVTVARAPAADD
- protein production: failed

Sequence: MGGITMTAVVSNRDKINFHEVADHYHSNKIIFGIKFLKNWALERLASCAPVPSWRAKLHKMRGVNIGENVYIGYDVIFDRIHPEMITVGDYAEIGDRCILSAHSRGSLTTRQAYPRSIAPIKIGRGVSVNPGCIITQGVEIGDNSIIGVGSVVSRNISPNSLALGYPAKVIKKLDGVGELQTLEHHHHHH
- protein production: failed

Sequence: MSDKQRVREQKHAWIYLFNLGFYILPMVLFPYQVWEIAVMVAALLVFIGLYYCCYSVPRQQMLWPILGMYIIACAVTPLNPGSIALFSYAGFFVGFAYNWRVALAAVAGIILTLATFHFGPGTSWDLFLPYGIVIVGTVSIFGRVERLRQQHAEEQERDAEEIERLATSVERERIARDLHDILGHTLSSIILKSDLAKAQLSKQRYDEASEQLVELSEIARESLSQVRQSVSGYKHGGLQLELRRLEQRLTDGGFSTRITGTPPIIDERRETSLVLAITELVTNIIRHSNGQQCLIHFDETANTYCIKVVDNGRCHDVSVGNGLSGVELRIQELGGSMSISTNKGCEVALFLPKLAEQQP
- protein production: failed

Sequence: MQFIWAALGLVCVALALIGVALPLLPTVPFLLLAAFFFARSSERLHTWLVTHRLFGPMILDWQQSGAIRPGAKKAATLSIAAVFGLSLVFAVPSHVLLIQAVVLSGVLIFIWTRPNG
- protein production: failed
